Experimental findings from IntAct's records for PubMed 31515488 are described below.

The target in test [1] is klhl2_human KLHL2 (UniProt O95198).
Test [2] addresses mlh1_human MLH1 (UniProt P40692).
Test [3] has as its target T1, srtd3_human SERTAD3 (UniProt Q9UJW9).
T1 sequence: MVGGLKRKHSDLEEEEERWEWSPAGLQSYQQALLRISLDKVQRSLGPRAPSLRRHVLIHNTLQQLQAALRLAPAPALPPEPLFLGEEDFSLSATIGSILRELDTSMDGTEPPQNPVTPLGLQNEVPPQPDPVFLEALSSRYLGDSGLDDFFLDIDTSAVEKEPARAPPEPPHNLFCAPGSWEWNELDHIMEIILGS

For test [4], the target named is T2, magd1_human MAGED1 (UniProt Q9Y5V3).
T2 sequence: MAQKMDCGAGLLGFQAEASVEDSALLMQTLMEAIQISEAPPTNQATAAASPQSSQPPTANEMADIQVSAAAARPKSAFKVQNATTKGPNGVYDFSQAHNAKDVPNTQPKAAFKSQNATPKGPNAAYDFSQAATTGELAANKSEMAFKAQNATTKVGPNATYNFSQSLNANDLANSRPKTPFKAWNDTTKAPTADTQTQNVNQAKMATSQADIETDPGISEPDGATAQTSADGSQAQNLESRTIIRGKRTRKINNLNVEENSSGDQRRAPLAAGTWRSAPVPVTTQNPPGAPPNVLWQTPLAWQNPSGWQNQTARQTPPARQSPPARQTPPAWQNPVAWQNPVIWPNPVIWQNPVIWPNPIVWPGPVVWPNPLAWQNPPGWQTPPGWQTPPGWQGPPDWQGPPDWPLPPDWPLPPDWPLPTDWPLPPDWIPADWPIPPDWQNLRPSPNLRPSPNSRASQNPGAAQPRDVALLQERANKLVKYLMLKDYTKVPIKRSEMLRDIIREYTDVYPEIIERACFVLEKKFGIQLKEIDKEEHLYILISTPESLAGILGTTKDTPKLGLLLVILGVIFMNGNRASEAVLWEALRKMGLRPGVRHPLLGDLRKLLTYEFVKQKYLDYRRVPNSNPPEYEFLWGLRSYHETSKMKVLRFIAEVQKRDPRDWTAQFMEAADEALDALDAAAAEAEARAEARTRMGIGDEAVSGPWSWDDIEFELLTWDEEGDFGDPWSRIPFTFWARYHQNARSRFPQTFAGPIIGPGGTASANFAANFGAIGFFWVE

For test [5], the target named is T3, neca2_human NECAB2 (UniProt Q7Z6G3).
T3 sequence: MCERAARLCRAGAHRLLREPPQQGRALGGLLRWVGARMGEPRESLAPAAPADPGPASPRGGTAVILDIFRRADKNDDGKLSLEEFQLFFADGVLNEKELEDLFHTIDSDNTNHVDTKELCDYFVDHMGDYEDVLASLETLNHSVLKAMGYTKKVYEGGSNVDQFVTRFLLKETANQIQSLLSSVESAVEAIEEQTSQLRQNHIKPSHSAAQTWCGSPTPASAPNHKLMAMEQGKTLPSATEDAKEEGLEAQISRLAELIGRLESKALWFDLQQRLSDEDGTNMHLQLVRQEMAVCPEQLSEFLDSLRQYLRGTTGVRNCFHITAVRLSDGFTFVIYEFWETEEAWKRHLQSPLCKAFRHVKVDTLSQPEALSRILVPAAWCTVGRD

The target in test [6] is nmna1_human NMNAT1 (UniProt Q9HAN9).
Test [7] deals with hbaz_human HBZ (UniProt P02008).
The target in test [8] is inca1_human INCA1 (UniProt Q0VD86).
In test [9] the target is cep76_human CEP76 (UniProt Q8TAP6).
For test [10], the target named is itf2_human TCF4 (UniProt P15884).
Test [11] deals with tcl1a_human TCL1A (UniProt P56279).

As for “Zinc finger protein 114 (Homo sapiens), Q8NC26 E19G”, the “effect of a mutation on the interaction” value in [1] is “with no effect”.
Turning to “Importin subunit alpha-1 (Homo sapiens) (from UniProt P52292) P216S”, the “effect of a mutation on the interaction” value in test [2], in test [3], in [4], in test [5] and in test [6] was “with no effect” throughout.
Turning to “Hemoglobin subunit beta (Homo sapiens), P68871 H118Y”, in test [7], the “effect of a mutation on the interaction” value was “disrupting interaction strength”.
Turning to “Calcium-binding protein 5 (Homo sapiens), Q9NP86 G73S”, the “effect of a mutation on the interaction” value in [8], in [9] and in test [10] was “with no effect” throughout.
As to “"DNA (cytosine-5)-methyltransferase 3A" (Homo sapiens) (from UniProt Q9Y6K1) E30A”, the “effect of a mutation on the interaction” value in test [11] is “with no effect”.
Consider “Zinc finger protein 114 (Homo sapiens), Q8NC26 K404E”, for which the “effect of a mutation on the interaction” value in [1] was “with no effect”.
Turning to “Importin subunit alpha-1 (Homo sapiens) (from UniProt P52292) V506D”, the “effect of a mutation on the interaction” value in test [3], in test [4], in test [5] and in test [6] was “with no effect” throughout.
Take “Hemoglobin subunit beta (Homo sapiens), P68871 F123S”: in test [7], the “effect of a mutation on the interaction” value is “disrupting interaction strength”.
Regarding “Importin subunit alpha-1 (Homo sapiens) (from UniProt P52292) N86S”, the “effect of a mutation on the interaction” value in test [2], in [3], in [4], in [5] and in [6] was “with no effect” each time.
For “Importin subunit alpha-1 (Homo sapiens) (from UniProt P52292) R117W”, the “effect of a mutation on the interaction” value in test [2], in test [3], in [4], in test [5] and in test [6] was “with no effect” each time.
With “Hemoglobin subunit beta (Homo sapiens), P68871 S10C”, in test [7], the “effect of a mutation on the interaction” value is reported as “disrupting interaction strength”.
With “Importin subunit alpha-1 (Homo sapiens) (from UniProt P52292) V506I”, the “effect of a mutation on the interaction” value in test [3], in [4], in test [5] and in [6] was “with no effect” throughout.
In the case of “Hemoglobin subunit beta (Homo sapiens), P68871 E122V”, in test [7], the “effect of a mutation on the interaction” value is “disrupting interaction strength”.
Same read-out and setting: the entry for “Hemoglobin subunit beta (Homo sapiens), P68871 G57D” is “with no effect”.
In the case of “"DNA (cytosine-5)-methyltransferase 3A" (Homo sapiens) (from UniProt Q9Y6K1) V372I”, the “effect of a mutation on the interaction” value in [11] was “with no effect”.
Take “Hemoglobin subunit beta (Homo sapiens), P68871 N103Y”: the “effect of a mutation on the interaction” value in test [7] is “with no effect”.
As for “"DNA (cytosine-5)-methyltransferase 3A" (Homo sapiens) (from UniProt Q9Y6K1) N501S”, the “effect of a mutation on the interaction” value in [11] is listed as “with no effect”.
With “Hemoglobin subunit beta (Homo sapiens), P68871 L115P”, in test [7], the “effect of a mutation on the interaction” value is reported as “disrupting interaction strength”.
Regarding “Zinc finger protein 114 (Homo sapiens), Q8NC26 H99N”, the “effect of a mutation on the interaction” value in [1] is listed as “with no effect”.
Regarding “Calcium-binding protein 5 (Homo sapiens), Q9NP86 V128A”, the “effect of a mutation on the interaction” value in test [8], in test [9] and in test [10] was “with no effect” in each case.
Turning to “Hemoglobin subunit beta (Homo sapiens), P68871 T88P”, the “effect of a mutation on the interaction” value in [7] is given as “disrupting interaction strength”.
On the same count and under the same terms, the entry for “Hemoglobin subunit beta (Homo sapiens), P68871 E102Q” is “disrupting interaction strength”.
Regarding “Calcium-binding protein 5 (Homo sapiens), Q9NP86 R44Q”, the “effect of a mutation on the interaction” value in [8], in test [9] and in test [10] was “with no effect” throughout.
As to “Hemoglobin subunit beta (Homo sapiens), P68871 V114E”, the “effect of a mutation on the interaction” value in [7] is listed as “disrupting interaction strength”.
With “Zinc finger protein 114 (Homo sapiens), Q8NC26 A229P”, the “effect of a mutation on the interaction” value in [1] is given as “with no effect”.
Consider “Hemoglobin subunit beta (Homo sapiens), P68871 F104L”, for which the “effect of a mutation on the interaction” value in [7] is “disrupting interaction strength”.
For the substance “Hemoglobin subunit beta (Homo sapiens), P68871 E7K”, in [7], the “effect of a mutation on the interaction” value is given as “disrupting interaction strength”.
For “Zinc finger protein 114 (Homo sapiens), Q8NC26 D61V”, in test [1], the “effect of a mutation on the interaction” value was “with no effect”.
Turning to “Hemoglobin subunit beta (Homo sapiens), P68871 P101A”, the “effect of a mutation on the interaction” value in test [7] was “disrupting interaction strength”.
For “Importin subunit alpha-1 (Homo sapiens) (from UniProt P52292) R117Q”, the “effect of a mutation on the interaction” value in test [2], in test [3], in [4], in [5] and in test [6] was “with no effect” throughout.
In the case of “"DNA (cytosine-5)-methyltransferase 3A" (Homo sapiens) (from UniProt Q9Y6K1) P904L”, in test [11], the “effect of a mutation on the interaction” value is listed as “disrupting interaction strength”.
In the case of “Zinc finger protein 114 (Homo sapiens), Q8NC26 Q357P”, in [1], the “effect of a mutation on the interaction” value was “with no effect”.
As for “Hemoglobin subunit beta (Homo sapiens), P68871 V127G”, the “effect of a mutation on the interaction” value in test [7] is “disrupting interaction strength”.
Same read-out and setting: as for “Hemoglobin subunit beta (Homo sapiens), P68871 E7V”, the entry is “disrupting interaction strength”; as for “Hemoglobin subunit beta (Homo sapiens), P68871 D100Y”, “disrupting interaction strength”.
